Legend:
[1] = substrate: O=C1c2c(O)cc(O)cc2O[C@H](c2cc(O)c(O)c(O)c2)[C@H]1O; experiment: cells, lysate or membranes; type: biochemical, Angelonia angustifolia; details: NADPH, pH 6.5, 25 °C (standard assay), yeast protein fraction, labelled compound
[2] = substrate: O=C1c2c(O)cc(O)cc2O[C@H](c2ccc(O)c(O)c2)[C@H]1O; experiment: cells, lysate or membranes; type: biochemical, Angelonia angustifolia; details: NADPH, pH 6.5, 25 °C (standard assay), yeast protein fraction, labelled compound

B1: Ang.DFR2 (Angelonia angustifolia) (protein)
chain: METTATQPPPPSSAAAVPATVCVTGAAGFIGSWLVMKLLQRGYNVRATVRDPGNLKKIKHLTQLPKADTNLTLWKADLMEEASFDEAIEGCQGVFHLATPMEFDSKDPENEVIKPTIEGMMSIIRSCAKAKTVEKVIFTTSAGTLNVEEHQKPFYDETSWSDLDFIYSKKMTGWMYFVSKYLAEKQAVEAAKLNNIEFISIIPPVVVGPFINPAFPPSLVTALSPITGNEAHYTIMKQGQFVHLDDICEAHIFLFEHPKADGRYICSSHDATIYDIARLIRDKWPEYNVPMEFKGIDKDIPVVRFSSKKLTSMGFKFKYSLEDMYRGAIETCREKGLLPYSTHNQSNGEKKESTLQSLEKHSDDQEKVLEKRVNGRLDKQFEEQKKELLPIREEKHTNGSLEKCSDDQAKVLLPLPEEKQTNGSLEKHVMINIKTCE
notes: full-length ORF, 437 residues; pYES2.1/V5-His-TOPO in S. cerevisiae INVSc1, protein fraction, not purified
Km [1]: 6.5 µM
Km [2]: 11 µM

— article PMC4169556, “Isolation of Dihydroflavonol 4-Reductase cDNA Clones from Angelonia x angustifolia and Heterologous Expression as GST Fusion Protein in Escherichia coli” (PLoS ONE, 2014)
